# Assay results: publication PMC6288486
# Tested on: His9
# Assay: UV-vis
# Conditions: 25 °C; none; pH adjusted with NaOH (1, 0.1, 0.01 M) and TFA (0.1 and 1% v/v in water); Mn(III) resting state, 15 µM. Transition from bis-aquo (species 1) to His-aquo (species 2) axial coordination. Helical fold stabilised by 40% TFE.
substance,measurement,value
Mn-Mimochrome VI*a (Mn-MC6*a) (synthetic construct),pKa,4.0
